Source: IntAct's records for PubMed 22317921

B1: Zinc transporter SLC39A7 (Homo sapiens), Q92504 (parent)
chain: MARGLGAPHWVAVGLLTWATLGLLVAGLGGHDDLHDDLQEDFHGHSHRHSHEDFHHGHSHAHGHGHTHESIWHGHTHDHDHGHSHEDLHHGHSHGYSHESLYHRGHGHDHEHSHGGYGESGAPGIKQDLDAVTLWAYALGATVLISAAPFFVLFLIPVESNSPRHRSLLQILLSFASGGLLGDAFLHLIPHALEPHSHHTLEQPGHGHSHSGQGPILSVGLWVLSGIVAFLVVEKFVRHVKGGHGHSHGHGHAHSHTRGSHGHGRQERSTKEKQSSEEEEKETRGVQKRRGGSTVPKDGPVRPQNAEEEKRGLDLRVSGYLNLAADLAHNFTDGLAIGASFRGGRGLGILTTMTVLLHEVPHEVGDFAILVQSGCSKKQAMRLQLLTAVGALAGTACALLTEGGAVGSEIAGGAGPGWVLPFTAGGFIYVATVSVLPELLREASPLQSLLEVLGLLGGVIMMVLIAHLE

Variants of: B1
Conditions: with csk21_human CSNK2A1, P68400
Sequence of csk21_human CSNK2A1, P68400 (P68400 whole entry, looked up): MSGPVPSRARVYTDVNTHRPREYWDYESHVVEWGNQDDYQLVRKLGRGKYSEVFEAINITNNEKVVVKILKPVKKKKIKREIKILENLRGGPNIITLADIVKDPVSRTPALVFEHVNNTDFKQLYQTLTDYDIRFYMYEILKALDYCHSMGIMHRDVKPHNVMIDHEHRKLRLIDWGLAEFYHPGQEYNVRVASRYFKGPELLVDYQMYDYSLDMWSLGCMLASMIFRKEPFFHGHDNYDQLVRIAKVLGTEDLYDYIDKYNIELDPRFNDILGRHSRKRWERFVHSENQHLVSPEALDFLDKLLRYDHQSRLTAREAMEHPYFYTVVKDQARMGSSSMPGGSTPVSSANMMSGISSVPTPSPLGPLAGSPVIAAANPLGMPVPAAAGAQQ

**Q.** Which “effect of a mutation on the interaction” value does the source give for MARGLGAPHWVAVGLLTWATLGLLVAGLGGHDDLHDDLQEDFHGHSHRHSHEDFHHGHSHAHGHGHTHESIWHGHTHDHDHGHSHEDLHHGHSHGYSHESLYHRGHGHDHEHSHGGYGESGAPGIKQDLDAVTLWAYALGATVLISAAPFFVLFLIPVESNSPRHRSLLQILLSFASGGLLGDAFLHLIPHALEPHSHHTLEQPGHGHSHSGQGPILSVGLWVLSGIVAFLVVEKFVRHVKGGHGHSHGHGHAHSHTRGSHGHGRQERSTKEKQAAEEEEKETRGVQKRRGGSTVPKDGPVRPQNAEEEKRGLDLRVSGYLNLAADLAHNFTDGLAIGASFRGGRGLGILTTMTVLLHEVPHEVGDFAILVQSGCSKKQAMRLQLLTAVGALAGTACALLTEGGAVGSEIAGGAGPGWVLPFTAGGFIYVATVSVLPELLREASPLQSLLEVLGLLGGVIMMVLIAHLE [S275A;S276A] here?
**A.** decreasing interaction
